The supplement of paper PMC10724198
± gives the standard deviation of the averaged measurements.

Legend:
[1] = system: Saccharomyces cerevisiae; test: protein stability index of tFT-peptide fusion (C-terminal peptide) (PSI (0-1 scale)); higher = more stable (slower turnover); details: genetic background: wild type; temperature: 30 C
[2] = system: Saccharomyces cerevisiae; test: as above
Protocol: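 MPS profiling in S. cerevisiae of the tFT-X12 degron library: putative degron peptides plus stable controls, 12 aa, fused to the C-terminus of a sfGFP-mCherry timer. Cells are FACS-sorted into 8 mCherry/sfGFP bins and deep-sequenced. PSI runs from 0 (unstable) to 1 (stable). Backgrounds are wild type, das1Δ and doa10Δ at 30 °C, and wild type, das1Δ, cdc34-1 and cdc53-1 at 37 °C; 2-3 technical replicates each.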

[3] = genetic background: cdc34-1, temperature: 37 C
[4] = genetic background: cdc53-1, temperature: 37 C
[5] = genetic background: das1 deletion, temperature: 30 C
[6] = genetic background: das1 deletion, temperature: 37 C
[7] = genetic background: doa10 deletion, temperature: 30 C
[8] = genetic background: wild type, temperature: 30 C
[9] = genetic background: wild type, temperature: 37 C
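Also: PSI is a weighted mean of sequencing reads over stability bins, variants kept only with over 10 reads, mCherry proximal and sfGFP distal, peptide attached via GGGS linker.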

Row | Sequence | protein stability index [1] | protein stability index [2, 3] | protein stability index [2, 4] | protein stability index [2, 5] | protein stability index [2, 6] | protein stability index [2, 7] | protein stability index [2, 8] | protein stability index [2, 9]
1 | SVLRCPVILLAY | 0.0975 ± 0.012 | 0.0423 ± 0.031 | 0.0232 ± 0.0025 | 0.0735 ± 0.036 | 0.0681 ± 0.008 | 0.0717 ± 0.0093 | 0.078 ± 0.017 | 0.0527 ± 0.02
2 | SVSFFSLCTSSL | 0.487 ± 0.012 | 0.511 ± 0.033 | 0.596 ± 0.006 | 0.506 ± 0.023 | 0.541 ± 0.011 | 0.521 ± 0.033 | 0.507 ± 0.02 | 0.511 ± 0.021
3 | SWTAYSYQWVFF | 0.128 ± 0.014 | 0.407 ± 0.025 | 0.57 ± 0.0072 | 0.4972 ± 0.0028 | 0.577 ± 0.016 | 0.0469 ± 0.0093 | 0.0403 ± 0.018 | 0.215 ± 0.031
4 | SWVSVLSELLAC | 0.336 ± 0.022 | 0.224 ± 0.014 | 0.249 ± 0.017 | 0.251 ± 0.045 | 0.362 ± 0.0082 | 0.204 ± 0.0092 | 0.238 ± 0.025 | 0.2873 ± 0.0022
5 | SYCFCCCVLFWG | 0.407 ± 0.026 | 0.432 ± 0.019 | 0.517 ± 0.011 | 0.352 ± 0.028 | 0.559 ± 0.056 | 0.325 ± 0.011 | 0.357 ± 0.017 | 0.502 ± 0.018
6 | SYFSVTLFFTVI | 0.38872 ± 0.00027 | 0.281 ± 0.015 | 0.383 ± 0.0059 | 0.298 ± 0.032 | 0.419 ± 0.0015 | 0.252 ± 0.02 | 0.272 ± 0.016 | 0.386 ± 0.024
7 | SYRFFLFLAVFV | 0.461 ± 0.021 | 0.555 ± 0.014 | 0.554 ± 0.048 | 0.451 ± 0.034 | 0.574 ± 0.0017 | 0.442 ± 0.017 | 0.44 ± 0.012 | 0.5379 ± 0.0032
8 | SYVFCYICGVQS | 0.428 ± 0.06 | 0.607 ± 0.038 | 0.592 ± 0.025 | 0.411 ± 0.03 | 0.596 ± 0.015 | 0.338 ± 0.031 | 0.372 ± 0.018 | 0.552 ± 0.025
9 | SYVRLDLFFFLG | 0.568 ± 0.11 | 0.517 ± 0.069 | 0.591 ± 0.03 | 0.491 ± 0.012 | 0.5727 ± 0.0048 | 0.46 ± 0.038 | 0.472 ± 0.026 | 0.5357 ± 0.0037
10 | TGVPNPSVAVMC | 0.498 ± 0.098 | 0.639 ± 0.039 | 0.623 ± 0.023 | 0.457 ± 0.025 | 0.6489 ± 0.005 | 0.446 ± 0.019 | 0.475 ± 0.028 | 0.625 ± 0.0069
11 | TIYGYEVTRKIG | 0.155 ± 0.0023 | 0.645 ± 0.068 | 0.78 ± 0.025 | 0.621 ± 0.019 | 0.732 ± 0.031 | 0.0795 ± 0.011 | 0.11 ± 0.021 | 0.145 ± 0.018
12 | TLLAFLIYLCFL | 0.416 ± 0.012 | 0.496 ± 0.023 | 0.515 ± 0.061 | 0.403 ± 0.023 | 0.546 ± 0.0095 | 0.402 ± 0.017 | 0.365 ± 0.028 | 0.499 ± 0.043
13 | TPVIPLIRVRDC | 0.29 ± 0.023 | 0.59 ± 0.034 | 0.701 ± 0.012 | 0.568 ± 0.017 | 0.691 ± 0.021 | 0.171 ± 0.011 | 0.225 ± 0.02 | 0.456 ± 0.0093
14 | TTGLLPSAYIWS | 0.762 ± 0.011 | 0.758 ± 0.05 | 0.753 ± 0.024 | 0.6494 ± 0.0043 | 0.768 ± 0.033 | 0.677 ± 0.0094 | 0.667 ± 0.028 | 0.716 ± 0.04
15 | TVWRRIRHACAH | 0.376 ± 0.038 | 0.597 ± 0.023 | 0.683 ± 0.0099 | 0.596 ± 0.013 | 0.702 ± 0.035 | 0.193 ± 0.0082 | 0.226 ± 0.015 | 0.365 ± 0.0047
16 | VAVYVGVGVSLG | 0.423 ± 0.0046 | 0.454 ± 0.045 | 0.523 ± 0.048 | 0.311 ± 0.03 | 0.546 ± 0.004 | 0.2819 ± 0.0021 | 0.33 ± 0.017 | 0.511 ± 0.039
17 | VAWFFFAYAFFM | 0.321 ± 0.0039 | 0.361 ± 0.058 | 0.451 ± 0.015 | 0.321 ± 0.043 | 0.488 ± 0.015 | 0.251 ± 0.0032 | 0.266 ± 0.026 | 0.407 ± 0.0093
18 | VCALHSAPLLIF | 0.462 ± 0.023 | 0.453 ± 0.029 | 0.484 ± 0.017 | 0.352 ± 0.034 | 0.496 ± 0.0065 | 0.307 ± 0.005 | 0.362 ± 0.012 | 0.467 ± 0.00048
19 | VCLVLVVVWWSG | 0.292 ± 0.024 | 0.219 ± 0.0066 | 0.277 ± 0.028 | 0.222 ± 0.021 | 0.338 ± 0.0041 | 0.1895 ± 0.0012 | 0.201 ± 0.027 | 0.313 ± 0.012
20 | VCRGWCVVRYIL | 0.281 ± 0.064 | 0.593 ± 0.015 | 0.699 ± 0.0099 | 0.574 ± 0.012 | 0.7226 ± 0.0024 | 0.173 ± 0.00096 | 0.18 ± 0.016 | 0.259 ± 0.0046

Row | Sequence | protein stability index [1] | protein stability index [2, 3] | protein stability index [2, 4] | protein stability index [2, 5] | protein stability index [2, 6] | protein stability index [2, 7] | protein stability index [2, 8] | protein stability index [2, 9]
21 | VCVFNLTLVGTH | 0.366 ± 0.023 | 0.421 ± 0.05 | 0.462 ± 0.018 | 0.347 ± 0.027 | 0.449 ± 0.0089 | 0.358 ± 0.028 | 0.343 ± 0.018 | 0.4341 ± 0.0033
22 | VFFFFSLVNFRV | 0.486 ± 0.041 | 0.546 ± 0.061 | 0.574 ± 0.041 | 0.459 ± 0.042 | 0.606 ± 0.017 | 0.47 ± 0.05 | 0.419 ± 0.021 | 0.549 ± 0.03
23 | VFFLFLVFLTVV | 0.259 ± 0.01 | 0.198 ± 0.059 | 0.164 ± 0.017 | 0.23 ± 0.01 | 0.324 ± 0.018 | 0.222 ± 0.011 | 0.195 ± 0.029 | 0.263 ± 0.0089
24 | VFFRCVCCLSVF | 0.307 ± 0.026 | 0.388 ± 0.029 | 0.408 ± 0.042 | 0.327 ± 0.024 | 0.412 ± 0.014 | 0.2533 ± 0.00085 | 0.264 ± 0.015 | 0.352 ± 0.007
25 | VFFVLIFLLFLF | 0.421 ± 0.011 | 0.438 ± 0.025 | 0.448 ± 0.03 | 0.4 ± 0.03 | 0.46 ± 0.012 | 0.41 ± 0.0085 | 0.353 ± 0.05 | 0.469 ± 0.0008
26 | VFGSVAALRLLM | 0.378 ± 0.095 | 0.666 ± 0.048 | 0.73216 ± 0.00032 | 0.6508 ± 0.0024 | 0.7704 ± 0.003 | 0.193 ± 0.007 | 0.208 ± 0.042 | 0.414 ± 0.036
27 | VFLFSWYIFSVF | 0.184 ± 0.015 | 0.206 ± 0.0065 | 0.341 ± 0.071 | 0.234 ± 0.031 | 0.42493 ± 0.00033 | 0.1066 ± 0.00012 | 0.109 ± 0.03 | 0.169 ± 0.0034
28 | VFLRCRSLSMRV | 0.465 ± 0.03 | 0.475 ± 0.044 | 0.519 ± 0.014 | 0.397 ± 0.028 | 0.5352 ± 0.0026 | 0.409 ± 0.019 | 0.389 ± 0.013 | 0.529 ± 0.012
29 | VFMTLHCITIYK | 0.458 ± 0.0029 | 0.452 ± 0.016 | 0.537 ± 0.068 | 0.379 ± 0.029 | 0.519 ± 0.052 | 0.338 ± 0.0065 | 0.348 ± 0.051 | 0.547 ± 0.0084
30 | VFSCFLFLVVLV | 0.242 ± 0.0034 | 0.129 ± 0.048 | 0.104 ± 0.011 | 0.205 ± 0.035 | 0.283 ± 0.023 | 0.279 ± 0.012 | 0.169 ± 0.019 | 0.2247 ± 0.0019
31 | VFVFLFVFLFLL | 0.177 ± 0.043 | 0.147 ± 0.03 | 0.138 ± 0.041 | 0.214 ± 0.047 | 0.313 ± 0.013 | 0.397 ± 0.098 | 0.2 ± 0.038 | 0.253 ± 0.015
32 | VGCHISAFSDLI | 0.762 ± 0.017 | 0.699 ± 0.022 | 0.744 ± 0.043 | 0.66 ± 0.023 | 0.752 ± 0.011 | 0.66 ± 0.037 | 0.665 ± 0.032 | 0.7489 ± 0.0017
33 | VGFIVCFFFSFG | 0.432 ± 0.02 | 0.334 ± 0.049 | 0.456 ± 0.0062 | 0.325 ± 0.033 | 0.459 ± 0.017 | 0.3 ± 0.031 | 0.313 ± 0.026 | 0.453 ± 0.0084
34 | VGIVWELGCWMG | 0.425 ± 0.019 | 0.365 ± 0.052 | 0.49 ± 0.03 | 0.325 ± 0.023 | 0.543 ± 0.023 | 0.2794 ± 0.00095 | 0.303 ± 0.021 | 0.508 ± 0.0067
35 | VGTGVGEGGGVV | 0.711 ± 0.011 | 0.679 ± 0.029 | 0.72922 ± 0.00013 | 0.645 ± 0.016 | 0.73 ± 0.011 | 0.654 ± 0.018 | 0.649 ± 0.013 | 0.719 ± 0.022
36 | VICVVLSKVFLF | 0.444 ± 0.014 | 0.483 ± 0.054 | 0.5728 ± 0.0027 | 0.495 ± 0.027 | 0.588 ± 0.0071 | 0.416 ± 0.0083 | 0.393 ± 0.02 | 0.483 ± 0.013
37 | VIGFGEVWIRCV | 0.141 ± 0.0034 | 0.358 ± 0.018 | 0.57 ± 0.058 | 0.435 ± 0.025 | 0.619 ± 0.023 | 0.0708 ± 0.013 | 0.0831 ± 0.01 | 0.0868 ± 0.013
38 | VILYCSNVAVCS | 0.294 ± 0.0038 | 0.355 ± 0.048 | 0.42 ± 0.013 | 0.246 ± 0.019 | 0.4263 ± 0.0013 | 0.212 ± 0.004 | 0.248 ± 0.023 | 0.399 ± 0.011
39 | VIVKSRTTLYIS | 0.155 ± 0.0099 | 0.49 ± 0.015 | 0.616 ± 0.0078 | 0.538 ± 0.013 | 0.613 ± 0.0096 | 0.092 ± 0.018 | 0.107 ± 0.018 | 0.193 ± 0.023
